Assays:
[1] = test system: HPV+ SCC152 head and neck cancer cells; experiment: FACS phagocytosis assay with pHrodo-labeled SCC152 cells; type: cell-based, human; conditions: CellTrace-violet labeled T cells, compared with mock transduced T cells
Experimental: CellTrace-violet labeled mock transduced, HPV E7-TCR transduced T cells, and HPV E7-TCR/CER29 tandem expression cassette transduced T cells were co-cultured pHrodo-red labeled HPV+SCC152 head and neck cancer cells.
The ability of CER modified-T cells to engulf target cells and recapitulate engulfment-signaling events was evaluated in co-culture assays. T cells were transduced with a nucleic acid encoding HPV E7 specific TCR (polypeptide sequence comprising SEQ ID NO:158) or tandem expression cassette encoding HPV E7 specific TCR+ CER29 (polypeptide sequence comprising SEQ ID NO:169). pHrodo-labeled HPV+ SCC152 head and neck cancer cells were co-incubated with mock transduced T cells, HPV E7 TCR transduced T cells, or HPV E7 TCR/CER29-transduced T cells.

[2] = test system: phosphatidylserine-coated beads; experiment: Phagocytic uptake of phosphatidylserine-coated latex beads; type: cell-based, human; conditions: 30 minutes incubation, transduced CD8+ T cells
Excerpt: Streptavidin coated latex beads were bound with biotin-phosphatidylserine and used for phagocytosis assays.

B1: HPV16 E7 TCR: HPV16 E7 specific TCR (WO2015/184228), SEQ ID NO:90; control transduced alone into T cells (protein)
chain: MAPGLLCWALLCLLGAGLVDAGVTQSPTHLIKTRGQQVTLRCSPKSGHDTVSWYQQALGQGPQFIFQYYEEEERQRGNFPDRFSGHQFPNYSSELNVNALLLGDSALYLCASSLGWRGGRYNEQFFGPGTRLTVLEDLRNVTPPKVSLFEPSKAEIANKQKATLVCLARGFFPDHVELSWWVNGKEVHSGVCTDPQAYKESNYSYCLSSRLRVSATFWHNPRNHFRCQVQFHGLSEEDKWPEGSPKPVTQNISAEAWGRADCGITSASYQQGVLSATILYEILLGKATLYAVLVSTLVVMAMVKRKNSRAKRSGSGATNFSLLKQAGDVEENPGPMWGVFLLYVSMKMGGTTGQNIDQPTEMTATEGAIVQINCTYQTSGFNGLFWYQQHAGEAPTFLSYNVLDGLEEKGRFSSFLSRSKGYSYLLLKELQMKDSASYLCASVDGNNRLAFGKGNQVVVIPNIQNPEPAVYQLKDPRSQDSTLCLFTDFDSQINVPKTMESGTFITDKCVLDMKAMDSKSNGAIAWSNQTSFTCQDIFKETNATYPSSDVPCDATLTEKSFETDMNLNFQNLLVIVLRILLLKVAGFNLLMTLRLWSS
modifications: HPV16 E7 TCRbeta chain-P2A-TCRalpha chain
notes: control transduced alone into T cells
phagocytosis of pHrodo-labeled SCC152 cells by FACS [1]: no difference in phagocytosis between mock-transduced T cells and E7 TCR transduced T cells
uptake of phosphatidylserine-coated latex beads [2]: do not exhibit uptake of latex beads coated with phosphatidylserine

From patent publication US20210024607A1, “EXPRESSION VECTORS FOR CHIMERIC ENGULFMENT RECEPTORS, GENETICALLY MODIFIED HOST CELLS, AND USES THEREOF” (CERo Therapeutics, Inc., priority 2018, published 2021)
